These results are taken from publication PMC12731043.

The assay concerns the target thrombin (factor IIa).

Take “cysteine-rich anticoagulant protein (CRA), recombinant, mature form with C-terminal His-Tag (natural protein)”: the thrombin time (TT), clotting time of control plasma, preparation CRA P1 at 1 µM and 5 µM (21.8 s to 66.8 s; control without protein 14.3 s and 11.7 s) is 66.8 s; the thrombin time (TT), clotting time of control plasma, preparation CRA P2 at 1 µM and 5 µM (16.6 s to 30.7 s; control without protein 14.3 s and 11.7 s) turned out to be 30.7 s; the thrombin time (TT), clotting time of control plasma, preparation CRA P3 at 1 µM and 5 µM (20.1 s to 43.3 s; control without protein 14.3 s and 11.7 s) amounted to 43.3 s.
